# Laboratory results as given in the Immune Epitope Database (IEDB).
# Key:
# HLA-A*69:01 = experiment: IEDB peptide-MHC binding, purified MHC/competitive/fluorescence; filed as Kd, often an IC50 or EC50 that approximates it; ≥ and ≤ were set here for values at or beyond the usual limits of such assays; details: source organism: Zaire ebolavirus
# HLA-B*46:01 = experiment: as above; details: source organism: Zaire ebolavirus
# HLA-B*27:03 = experiment: as above; details: source organism: Zaire ebolavirus
# HLA-B*51:01 [1] = experiment: as above; details: source organism: Zaire ebolavirus
# HLA-B*39:01 = experiment: as above
# HLA-A*02:01 [2] = experiment: as above
# HLA-B*15:01 [3] = experiment: as above; details: source organism: Zaire ebolavirus
# HLA-B*57:01 [4] = experiment: as above; details: source organism: Zaire ebolavirus
# HLA-A*26:01 = experiment: as above; details: source organism: Zaire ebolavirus
# HLA-B*15:17 [5] = experiment: as above; details: source organism: Zaire ebolavirus
# HLA-A*24:03 = experiment: IEDB peptide-MHC binding, purified MHC/direct/fluorescence; filed as Kd, often an IC50 or EC50 that approximates it; ≥ and ≤ were set here for values at or beyond the usual limits of such assays; details: source organism: Zaire ebolavirus
# HLA-A*02:12 = experiment: as above; details: source organism: Zaire ebolavirus
# HLA-A*02:19 [6] = experiment: as above; details: source organism: Zaire ebolavirus
# HLA-A*29:02 = experiment: as above; details: source organism: Zaire ebolavirus
# HLA-A*23:01 = experiment: as above; details: source organism: Zaire ebolavirus
# HLA-A*02:16 = experiment: as above; details: source organism: Zaire ebolavirus
# HLA-A*03:01 [7] = experiment: as above; details: source organism: Zaire ebolavirus
# HLA-A*02:03 = experiment: as above; details: source organism: Zaire ebolavirus
# HLA-B*40:01 = experiment: as above; details: source organism: Sudan ebolavirus - Maleo (1979)
# HLA-A*68:02 = experiment: as above; details: source organism: Zaire ebolavirus
# HLA-A*02:11 = experiment: as above; details: source organism: Zaire ebolavirus
# HLA-C*15:02 = experiment: as above
# HLA-A*24:02 = experiment: IEDB peptide-MHC binding, purified MHC/competitive/fluorescence; ≥ and ≤ were set here for values at or beyond the usual limits of such assays; details: source organism: Zaire ebolavirus
# HLA-B*08:01 = experiment: as above
# HLA-B*58:01 = experiment: IEDB peptide-MHC binding, purified MHC/direct/fluorescence; filed as Kd, often an IC50 or EC50 that approximates it; ≥ and ≤ were set here for values at or beyond the usual limits of such assays
# HLA-C*07:02 = experiment: as above
# HLA-B*07:02 [8] = experiment: IEDB peptide-MHC binding, purified MHC/competitive/fluorescence; ≥ and ≤ were set here for values at or beyond the usual limits of such assays
# HLA-C*12:03 = experiment: IEDB peptide-MHC binding, purified MHC/direct/fluorescence; filed as Kd, often an IC50 or EC50 that approximates it; ≥ and ≤ were set here for values at or beyond the usual limits of such assays
# HLA-B*57:01 [9] = experiment: as above; details: source organism: Salmonella enterica
# HLA-B*15:17 [10] = experiment: as above; details: source organism: Salmonella enterica subsp. enterica serovar Typhimurium
# HLA-B*35:01 = experiment: IEDB peptide-MHC binding, purified MHC/competitive/radioactivity; filed as Kd, often an IC50 or EC50 that approximates it; ≥ and ≤ were set here for values at or beyond the usual limits of such assays; details: source organism: Vaccinia virus WR
# HLA-B*51:01 [11] = experiment: as above; details: source organism: Vaccinia virus WR
# HLA-A*33:01 = experiment: as above; details: source organism: Vaccinia virus WR
# HLA-B*07:02 [12] = experiment: as above; details: source organism: Vaccinia virus WR
# HLA-B*54:01 = experiment: as above; details: source organism: Vaccinia virus WR
# HLA-B*53:01 = experiment: as above; details: source organism: Vaccinia virus WR
# HLA-A*31:01 = experiment: as above; details: source organism: Vaccinia virus WR
# HLA-A*11:01 = experiment: as above; details: source organism: Vaccinia virus WR
# HLA-A*03:01 [13] = experiment: as above; details: source organism: Vaccinia virus WR
# HLA-A*68:01 = experiment: as above; details: source organism: Vaccinia virus WR
# HLA-A*02:19 [14] = experiment: IEDB peptide-MHC binding, purified MHC/competitive/fluorescence; filed as Kd, often an IC50 or EC50 that approximates it; ≥ and ≤ were set here for values at or beyond the usual limits of such assays; details: source organism: Toxoplasma gondii RH
# HLA-A*02:01 [15] = experiment: IEDB peptide-MHC binding, purified MHC/competitive/fluorescence; ≥ and ≤ were set here for values at or beyond the usual limits of such assays; details: source organism: Vaccinia virus Copenhagen
# HLA-B*18:01 = experiment: IEDB peptide-MHC binding, purified MHC/competitive/fluorescence; filed as Kd, often an IC50 or EC50 that approximates it; ≥ and ≤ were set here for values at or beyond the usual limits of such assays; details: source organism: Zaire ebolavirus
# HLA-B*15:01 [16] = experiment: IEDB peptide-MHC binding, purified MHC/direct/fluorescence; filed as Kd, often an IC50 or EC50 that approximates it; ≥ and ≤ were set here for values at or beyond the usual limits of such assays; details: source organism: Reston ebolavirus - Reston
# [17] = source organism: Zaire ebolavirus
# [18] = source organism: Vaccinia virus Copenhagen
# [19] = source organism: Vaccinia virus L-IPV
# [20] = source organism: Bacillus anthracis str. A2012
# [21] = source organism: Bacillus anthracis str. A0488
sequence,measurement,setting,value
DETFVHSGF,Kd,HLA-A*69:01,≥ 20 µM
same,Kd,HLA-B*46:01,≥ 20 µM
same,Kd,HLA-B*27:03,≥ 20 µM
same,Kd,HLA-B*51:01 [1],≥ 20 µM
same,Kd,HLA-B*39:01; [17],≥ 20 µM
same,Kd,HLA-A*02:01 [2]; [17],≥ 20 µM
same,Kd,HLA-B*15:01 [3],≥ 20 µM
same,Kd,HLA-B*57:01 [4],≥ 20 µM
same,Kd,HLA-A*26:01,≥ 20 µM
same,Kd,HLA-B*15:17 [5],≥ 20 µM
same,Kd,HLA-A*24:03,≥ 20 µM
same,Kd,HLA-A*02:12,≥ 20 µM
same,Kd,HLA-A*02:19 [6],≥ 20 µM
same,Kd,HLA-A*29:02,≥ 20 µM
same,Kd,HLA-A*23:01,≥ 20 µM
same,Kd,HLA-A*02:16,≥ 20 µM
same,Kd,HLA-A*03:01 [7],≥ 20 µM
same,Kd,HLA-A*02:03,≥ 20 µM
same,Kd,HLA-B*40:01,≥ 20 µM
same,Kd,HLA-A*68:02,≥ 20 µM
same,Kd,HLA-A*02:11,≥ 20 µM
TINDLKMML,Kd,HLA-C*15:02; [18],0.043 µM
NFHQKKNEI,IC50,HLA-A*24:02,8.08 µM
same,IC50,HLA-B*08:01; [17],66.1 µM
VSARIAALF,Kd,HLA-C*15:02; source organism: Mycobacterium tuberculosis H37Rv,3.14 µM
same,Kd,HLA-B*58:01; source organism: Mycobacterium tuberculosis,0.036 µM
ALPPRAFEL,Kd,HLA-C*07:02; source organism: Mycobacterium tuberculosis F11,0.085 µM
YPTAWQSVG,IC50,HLA-A*24:02,≥ 209 µM
same,IC50,HLA-B*07:02 [8]; [17],≥ 174 µM
QPEWFRNIL,IC50,HLA-B*07:02 [8]; source organism: Influenza A virus (A/Oklahoma/309/2006(H3N2)),0.188 µM
VAANIVLTV,Kd,HLA-A*02:01 [2]; source organism: Homo sapiens,0.0145 µM
same,Kd,HLA-C*12:03; source organism: Callithrix jacchus,≤ 0.001 µM
YRSMIAFKL,Kd,HLA-C*07:02; source organism: Entamoeba histolytica HM-1:IMSS,0.045 µM
TTHHTIPLL,Kd,HLA-C*15:02; source organism: Salmonella enterica subsp. enterica serovar Typhi str. CT18,≥ 20 µM
same,Kd,HLA-B*58:01; source organism: Salmonella enterica subsp. enterica serovar Typhimurium,3.24 µM
same,Kd,HLA-B*57:01 [9],4 µM
same,Kd,HLA-B*15:17 [10],0.0659 µM
SLSKRERQL,IC50,HLA-B*08:01; [18],≥ 76.3 µM
same,IC50,HLA-B*07:02 [8]; [18],57.5 µM
FEEMYRHIL,IC50,HLA-A*24:02,25.8 µM
same,IC50,HLA-B*08:01; [17],≥ 81.4 µM
DSRPQKIWM,IC50,HLA-B*08:01; [17],≥ 95.4 µM
RLYDYFTRV,Kd,HLA-A*02:01 [2]; [19],0.0039 µM
same,Kd,HLA-B*35:01,≥ 31.5 µM
same,Kd,HLA-B*51:01 [11],≥ 77.5 µM
same,Kd,HLA-A*33:01,≥ 77.7 µM
same,Kd,HLA-B*07:02 [12],16.8 µM
same,Kd,HLA-B*54:01,≥ 60.7 µM
same,Kd,HLA-B*53:01,≥ 78.2 µM
same,Kd,HLA-A*31:01,0.411 µM
same,Kd,HLA-A*11:01,0.155 µM
same,Kd,HLA-A*03:01 [13],≥ 59.3 µM
same,Kd,HLA-A*68:01,≥ 77.7 µM
same,Kd,HLA-C*12:03; [19],0.932 µM
SPRMLTPIN,IC50,HLA-B*07:02 [8]; [17],5.08 µM
FLIYFRSPL,Kd,HLA-A*02:01 [2]; [20],0.0106 µM
same,Kd,HLA-C*07:02; [20],1.44 µM
FRMTENVPL,Kd,HLA-B*39:01; [21],0.0017 µM
same,Kd,HLA-C*07:02; [21],0.048 µM
SIFERIREA,Kd,HLA-A*02:19 [14],1.15 µM
same,Kd,HLA-A*02:01 [2]; source organism: Toxoplasma gondii RH,0.002 µM
FALKKLIID,IC50,HLA-B*08:01; [18],≥ 211 µM
same,IC50,HLA-A*02:01 [15],≥ 161 µM
WQQWDRQSL,Kd,HLA-A*69:01,≥ 20 µM
same,Kd,HLA-B*46:01,≥ 20 µM
same,Kd,HLA-B*27:03,≥ 20 µM
same,Kd,HLA-B*18:01,≥ 20 µM
same,Kd,HLA-B*51:01 [1],≥ 20 µM
same,Kd,HLA-A*02:01 [2]; [17],≥ 20 µM
same,Kd,HLA-B*57:01 [4],≥ 20 µM
same,Kd,HLA-A*26:01,≥ 20 µM
same,Kd,HLA-B*15:17 [5],≥ 20 µM
same,Kd,HLA-A*24:03,≥ 20 µM
same,Kd,HLA-A*02:12,≥ 20 µM
same,Kd,HLA-A*02:19 [6],≥ 20 µM
same,Kd,HLA-A*29:02,≥ 20 µM
same,Kd,HLA-A*23:01,≥ 20 µM
same,Kd,HLA-B*15:01 [16],0.127 µM
same,Kd,HLA-A*02:16,≥ 20 µM
same,Kd,HLA-A*03:01 [7],≥ 20 µM
same,Kd,HLA-A*02:03,≥ 20 µM
same,Kd,HLA-A*68:02,≥ 20 µM
same,Kd,HLA-A*02:11,≥ 20 µM
